# Experimental data: article PMC7141177 (Journal of molecular biology, 2018)
# pKd: −log10 of the molar value.
# Key:
# [1] = target: full-length T. gondii apical complex lysine (K) methyltransferase (AKMT, aa1–709) (Toxoplasma gondii); assay: SEC-MALS
# [2] = target: AKMT-ΔNTD (aa289–709) (Toxoplasma gondii); assay: SEC-MALS
# [3] = target: AKMT-ΔNTD-short (aa309–709) (Toxoplasma gondii); assay: SEC-MALS
# AKMT-ΔNTD = AKMT-ΔNTD (Toxoplasma gondii, UniProt B9Q0K5); assay: isothermal titration calorimetry; assay type: binding
compound,measurement,setting,value
"full-length T. gondii apical complex lysine (K) methyltransferase (AKMT, aa1–709) (enzyme)",stoichiometry N,[1],2
AKMT-ΔNTD (aa289–709) (domain or fragment),stoichiometry N,[2],2
AKMT-ΔNTD-short (aa309–709) (domain or fragment),stoichiometry N,[3],2
Nc1ncnc2c1ncn2[C@@H]1O[C@H](C[C@@H](N)CC[C@H](N)C(=O)O)[C@@H](O)[C@H]1O [sinefungin],pKd,AKMT-ΔNTD,6.59
